Results on four molecules are retold here after patent publication US20200353078A1 (AstraZeneca / MedImmune, published 2020).

Assay [1] addresses T1, H338L293 (SEQ ID NOs 182 and 187).
T1 construct: IgG; also called H338L293_fgl; H338L293 IgG
In words: Biacore T100, IgG captured on Protein G', 0.625-20 nM peptide as analyte, 1:1 fit. An excerpt:
The identified peptide together with a truncate ([…]) and scrambled variants of both, were then chemically synthesised and used in confirmatory T100 Biacore (GE Healthcare) binding studies. Protein G′ (Sigma Aldrich, P4689) was covalently coupled to the surface of a CM5 sensor chip (GE Healthcare) using standard amine coupling reagents according to manufacturer's instructions. The protein G′ surface was used to capture H338L293 or ST2-Fc via the Fc domain to provide a surface density of approximately 290 RU per cycle. IL33 peptides prepared in HBS-EP+ buffer, at a range of concentrations were passed over the sensor chip surface. The surface was regenerated using two 10 mM Glycine washes of pH 1.7 and pH 1.5 between each injection of antibody. The resulting sensorgrams were evaluated using Biacore T100 evaluation software 2.0.3 (GE Healthcare) and fitted to a 1:1 Langmuir binding model, to provide relative binding data.

Assay [2] concerns the target T2, Cynomolgus IL-33 Flag®His (cynomolgus monkey).
T2 construct: C-terminal FLAG 10xHis tag, E. coli; also called Mature Cynomolugus IL-33; cyno IL-33 FH
T2 chain: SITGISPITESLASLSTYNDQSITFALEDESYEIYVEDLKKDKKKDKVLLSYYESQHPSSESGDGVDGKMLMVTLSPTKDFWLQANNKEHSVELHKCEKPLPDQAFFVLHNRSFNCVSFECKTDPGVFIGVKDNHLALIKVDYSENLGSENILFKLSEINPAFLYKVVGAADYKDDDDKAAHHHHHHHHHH
The assay can be described thus: ELISA, biotinylated antigen on streptavidin plate, anti-human IgG HRP. The method, then: (§1) 96-well Greiner polypropylene plates (Greiner, 650201) were used for dilution preparation. Generally, each dilution was prepared in duplicate. IgG dilutions were allowed to block in PBS-M for 1 hour at room temperature before being used directly in ELISA experiments.
(§2) Streptavidin plates (Thermo Scientific, AB-1226) were coated with biotinylated antigen at 0.5 μg/ml in PBS and incubated overnight at 4° C. Plates were washed 3× with PBS and blocked with 300 μl/well blocking buffer (PBS-M) for 1 hour. Plates were washed 1× with PBS and blocked samples added, 50 μl/well for 1 hour at room temperature. […] Plates were washed 3× with PBS-T and developed with TMB, 50 μl/well (Sigma, T0440). The reaction was quenched with 50 μl/well 0.1M H2504 before reading on an EnVision™ plate reader, or similar equipment, at 450 nm.
(§3) Species cross-reactivity of anti-IL-33 antibodies was determined using a plate-based ELISA. Streptavidin plates (Thermo Scientific, AB-1226) were coated with biotinylated antigen at 0.5 μg/ml in PBS. Binding of purified IgG preparations was detected with anti-human IgG HRP (Sigma, A0170).

In assay [3] the target is T3, Human IL-33 Flag®His (human).
T3 construct: Mature IL-33 with C-terminal FLAG 10xHis tag, from E. coli; biotinylated via free cysteines where used biotinylated; also called Mature Human IL-33_FH; human IL-33 FH
T3 chain: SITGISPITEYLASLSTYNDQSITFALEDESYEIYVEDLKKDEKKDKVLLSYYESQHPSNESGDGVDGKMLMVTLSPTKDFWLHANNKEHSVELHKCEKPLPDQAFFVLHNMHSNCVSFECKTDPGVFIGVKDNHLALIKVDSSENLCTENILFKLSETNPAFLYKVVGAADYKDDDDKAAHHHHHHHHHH
Described as above. The method, then:
as §1, §2, §3

For assay [4], the target named is T4, Mouse IL-33 Flag®His (mouse).
T4 construct: C-terminal FLAG 10xHis tag, E. coli; also called Mature Mouse IL-33_FH; mouse IL-33 FH
T4 chain: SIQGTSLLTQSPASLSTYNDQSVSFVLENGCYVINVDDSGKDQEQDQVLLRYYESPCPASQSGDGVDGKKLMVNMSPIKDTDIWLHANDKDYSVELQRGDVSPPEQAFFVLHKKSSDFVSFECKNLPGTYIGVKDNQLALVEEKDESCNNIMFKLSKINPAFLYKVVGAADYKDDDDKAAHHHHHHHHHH
Described as above. The method, then: as §1, §2, §3

The target of assay [5] is T5, Human IL-33 (Axxora/Adipogen AG-40B-0038) (human, UniProt O95760 112-270, limits assumed).
T5 sequence (looked up): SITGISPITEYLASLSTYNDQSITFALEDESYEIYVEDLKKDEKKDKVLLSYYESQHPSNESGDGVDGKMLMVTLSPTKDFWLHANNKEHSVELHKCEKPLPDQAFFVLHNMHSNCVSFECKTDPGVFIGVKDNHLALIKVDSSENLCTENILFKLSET
The assay can be described thus: cell-based or functional assay.

The target in assay [6] is T6, Human IL-33 (Axxora/Alexis ALX-522-098) (human, UniProt O95760 112-270).
T6 sequence (looked up): T5 sequence (looked up)
The assay can be described thus: cell-based or functional assay.

For assay [7], the target named is T5, Human IL-33 (Axxora/Adipogen …). The assay can be described thus: cell-based or functional assay. The source holds these as a separate data set.
Assay [8] has the same target. In words: cell-based or functional assay. The source holds these as a separate data set.
The target of assay [9] is T3, Human IL-33 Flag®His. In words: BIAcore 2000 solution affinity, 48 h equilibration at 25 C, free IgG read on biotinylated IL-33 chip. As for the experimental part: The binding affinity of purified IgG samples of exemplary binding members to human, cynomolgus or mouse IL-33 was determined by solution affinity using a BIAcore 2000 (GE healthcare). A biotinylated-IL33 surface was immobilised on a streptavin coated sensor chip (GE healthcare cat. No. BR-1000-32). Anti-IL33 antibodies were incubated with various concentrations of unlabelled IL33 and equilibrated at 25° C. for 48 hours. The amount of free antibody was determined by flowing the samples over the IL33 chip and measuring the response compared to a standard curve of antibody. Affinities were determined using the solution affinity fit in BIAevaluation software. The affinities for antibodies IL330101, H338L293, IL330388, IL330396 binding to human, cynomolgus or mouse IL-33 are shown in Table 15.

Assay [10] addresses T7, Human ST2-Fc (R&D Systems, or source not stated in the example) (human, UniProt Q01638 19-328).
T7 construct: extracellular domain; also called sST2.Fc; sST2
T7 sequence (looked up): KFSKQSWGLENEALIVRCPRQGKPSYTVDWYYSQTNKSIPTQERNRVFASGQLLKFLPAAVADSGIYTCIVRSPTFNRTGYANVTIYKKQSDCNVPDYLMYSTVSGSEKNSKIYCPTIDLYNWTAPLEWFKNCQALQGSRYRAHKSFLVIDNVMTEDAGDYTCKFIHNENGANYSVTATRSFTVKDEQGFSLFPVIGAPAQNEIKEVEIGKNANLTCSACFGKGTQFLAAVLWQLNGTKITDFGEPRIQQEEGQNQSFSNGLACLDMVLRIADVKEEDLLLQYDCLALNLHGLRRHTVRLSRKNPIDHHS
In words: SPR BIAcore 2000, ST2 captured via Fc-tag on anti-human Fc, IL-33 7.8 nM to 0.24 nM as analyte, 1:1 Langmuir. As for the experimental part: The disulphide bonded IL-33 is likely a very different structure to the reduced, ST2-binding IL-33 form (FIG. 22, 23), and conversion to the disulphide bonded form was associated with loss of functional activity (FIG. 17C). To investigate this, the disulphide bonded form of IL-33 was tested for ability to bind ST2 by BIAcore analysis. Direct binding of IL-33 to the extracellular domain of ST2 was determined by Surface Plasmon Resonance using a BIAcore 2000 (GE healthcare). ST2 was immobilised via the Fc-tag using an anti-human Fc capture (GE healthcare BR-1003-39) on a CM5 sensor chip (GE healthcare BR-1003-99) to give a stable surface of approximately 150 RU. IL-33 was flowed over the surface at 30 ul/min for three minutes to determine association rates. Dissociation was measured by flowing buffer at 30 ul/min for 15 minutes. Sensorgrams were interpreted using BIAevaluation software and kinetics were determined using double reference subtracted sensorgrams using a 1:1 (Langmuir) binding model.
A general note: In SPR one partner is held on a chip, and binding of the other changes the refractive index at the surface.

Assay [11] concerns the target T4, Mouse IL-33 Flag®His. In words: ELISA, biotinylated antigen on streptavidin plate, purified IgG. As for the experimental part: as §2, §3
In general terms: An ELISA detects its analyte on a solid surface through an enzyme-linked reagent.

T1 sequence (VL, as listed by the source): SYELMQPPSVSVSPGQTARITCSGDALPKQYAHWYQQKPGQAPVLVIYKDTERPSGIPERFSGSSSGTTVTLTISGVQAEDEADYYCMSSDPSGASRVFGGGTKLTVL

B1: Truncated IL-33 epitope peptide (peptide)
peptide: LSPTKDFWLHANNKEHSVELHK
notes: Chemically synthesised; also called truncate peptide
B1: the affinity in [1], expressed as Kd, was 2.36 nM.

B2: IL330101 IgG (antibody, V domains shown)
VH: EVQLLESGGGLVQPGGSLRLSCAASGFTFSSYAMSWVRQAPGKGLEWVSAISGSGGSTYYADSVKGRFTISRDNSKNTLYLQMNSLRAEDTAVYYCVRVVAGYFDSWGRGTLVTVSS
VL: SYVLTQPPSVSVSPGQTARITCSGDALPKQYAHWYQQKPGQAPALVIYKDTERPSGIPERFSGSSSGTTVTLTISGVQAEDEADYYCQSADSSGASRVFGGGTKVTVL
notes: IgG1 or IgG1-TM; also called mAb IL330101; IL3300101
For B2, in assay [2], a half-maximal response (EC50) required 1.2 nM. In addition, the response with Human IL-33 Flag®His [3] was half-maximal at 1.19 nM (EC50). For the same molecule, the midpoint of the response with Mouse IL-33 Flag®His [4], the EC50, lay at 0.85 nM. Also, in assay [5], the “Huvec IL-6 production, maximum inhibition” value is roughly 70% and the “Mast cell IL-6 production, inhibition” value worked out at 100%. Moreover, the “IC50, TF-1 proliferation” value in assay [6] was determined as 149 nM. For the same molecule, in assay [7], the “IC50 (geomean), Huvec IL-6 production” value stood at 497 nM and the “IC50 (geomean), Mast cell IL-6 production” value is 49 nM. Further, in assay [8], the “IC50, Huvec IL-6 production” value is 193 nM and the “IC50, Mast cell IL-6 production” value is 93 nM. In addition, the Kd (in general, the constant that tells how readily two partners part at equilibrium) with Human IL-33 Flag®His [9] was determined as 0.0032 pM.

B3: redIL-33 (detagged human IL33-01, BK349) (ligand, UniProt O95760 112-270, looked up)
chain: T5 sequence (looked up)
notes: Reduced form; also called reduced IL-33; Human IL33-01 detagged
Regarding B3, in [10], the Kd was found to be 0.2 nM. In other words, the sub-nanomolar range.

B4: IL330065 IgG (antibody, V domains shown)
VH: EVQLVQSGAEVKKPGTAVKISCKASGYTFTDYYIHWVQQAPGKGLEWMGLVDPEDGETKYAEKFQGRVSITADTSTDTAYMELRSLTSEDTAVYFCTMGWAQWGRGTLVTVSS
VL: QSVLTQPPSASGTPGQRVTISCSGSSSNIGSNYVYWYQQVPGTAPKLVIYRDFQRPSGVPDRFSGSKSGNSASLVISGLRSEDEGEYVCAAWDDSLTGPRFGGGTKVTVL
notes: IgG1 or IgG1-TM (L234F, L235E, P331S); functional data combine both formats
With B4, the response in assay [2] was half-maximal at 0.66 nM (EC50). Besides, in the assay with Human IL-33 Flag®His [3], the EC50 (in general, the concentration at which the effect is half-maximal) stood at 0.65 nM. The binding result in the assay with Mouse IL-33 Flag®His [11] is reported as “no binding”. Besides, in assay [6], the “IC50 (geomean), TF-1 proliferation” value is 81 nM. Moreover, in assay [7], the “IC50 (geomean), Huvec IL-6 production” value was determined as 87 nM and the “IC50 (geomean), Mast cell IL-6 production” value came to 12 nM.
